Measured values: article PMC11059233

Biological target: HLA-B*35:01 expressed in C1R cells (C1R.B*35:01) (human | human (endogenous in C1R))

influenza B virus PB2_(66-70) peptide
IFN-γ+TNF+ CD8+ T cells (expanded with pool J) after restimulation with peptide-pulsed C1R.B*35:01; donors responding: 1 of 6 donors
